Drawing on article PMC2467505, this text covers Km, Vmax and kcat/Km for one protein.

Holding throughout (assay): purified protein
Substrate in data set [1]: CC(=O)C=O
The note with it: reduction, 70°C, 0.1 M sodium phosphate pH 7.0, 0.35 mM NADPH.

Substrate in data set [2]: CC(=O)CCC(C)=O
Particulars: reduction, 70°C, 0.1 M sodium phosphate pH 7.0, 0.35 mM NADPH.

Substrate in data set [3]: CCCC(C)O
The note with it: oxidation, 70°C, 50 mM glycine pH 10.5, 0.35 mM NADP+.

Substrate in data set [4]: C[C@H](O)CC[C@H](C)O
The note with it: oxidation, 70°C, 50 mM glycine pH 10.5, 0.35 mM NADP+.

B1: AdhA (Pyrococcus furiosus; INS1A) (protein)
chain: MAKVAVITGASRGIGEAIAKALAEDGYSLALGARSVDRLEKIAKELSEKHGVEVFYDYLDVSKPESVEEFARKTLAHFGDVDVVVANAGLGYFGRLEELTEEQFHEMIEVNLLGVWRTIKAFLNSLKRTGGVAIVVTSDVSARLLPYGGGYVATKWAARALVRTFQIENPDVRFFELRPGAVDTYFGGSKAGKPKEQGYLKPEEVAEAVKYLLRLPKDVRVEELMLRSIYQKPEY
In the case of B1, the Km (as a rule, the substrate concentration at which the rate is half of its maximum) is given as 1.2 ± 0.03 mM in “purified protein [1]”, 56.4 ± 0.6 mM in “purified protein [2]”, 30.3 ± 0.4 mM in the data set “purified protein [3]” and 5.4 ± 0.3 mM in “purified protein [4]”. For the same protein, the Vmax (usually the top rate of the reaction or transport when substrate is in excess) in “purified protein [1]” was determined as 10.4 µmol/min/mg; in “purified protein [2]” it was 1.9 µmol/min/mg; in the data set “purified protein [3]”, 13.1 µmol/min/mg; in the data set “purified protein [4]” it was 12.8 µmol/min/mg. Also, the kcat/Km (commonly the second-order rate constant that governs catalysis at low substrate concentration) came out at 3800 M⁻¹ s⁻¹ in “purified protein [1]”, 10 M⁻¹ s⁻¹ in “purified protein [2]”, 100 M⁻¹ s⁻¹ in the data set “purified protein [3]” and 1000 M⁻¹ s⁻¹ in “purified protein [4]”.
